From patent US6544520B1, “Hepatitis B virus inhibitors” (priority 1996, dated 2003) come the findings set out here.

“And” between values parts separate entries of the source, which are not always exact repeats. Equal values may be shown once. Non-standard residues stand in square brackets, D forms with d. Residues, ends and D or L forms follow the SMILES beside them. No end group written: not given here. βAla = NCCC(=O)O

B1: phage 4A-1 (peptide, not shown: large carriers)
chain: ADGSRSSLLGRMKGA
B2: phage 6 (peptide, not shown: large carriers)
chain: ADGALLGRMKRA
B3: phage 2 (peptide, not shown: large carriers)
chain: ADGALLGRMKPA
B4: phage 4A-3 (peptide, not shown: large carriers)
chain: ADGAHRSLLGRMKGA
B5: phage 4A-28 (peptide, not shown: large carriers)
chain: ADGYQRSLLGRMKGA
B6: phage 4A-2 (peptide, not shown: large carriers)
chain: ADGPRSSLLGRMKGA
B7: phage 4 (peptide, not shown: large carriers)
chain: ADGTLLGRMKLA
B8: phage 2A-8 (peptide, not shown: large carriers)
chain: ADRSLLGRMKGA
B9: phage 4B-7 (peptide, not shown: large carriers)
chain: ADGHRSSLLGRMKGA
B10: phage 1 (peptide, not shown: large carriers)
chain: ADGSLLGRMKPA
B11: phage 4A-26 (peptide, not shown: large carriers)
chain: ADGTQRSLLGRMKGA

Chain of hepatitis B virus core antigen (HBcAg) (hepatitis B virus) (P03147 whole entry): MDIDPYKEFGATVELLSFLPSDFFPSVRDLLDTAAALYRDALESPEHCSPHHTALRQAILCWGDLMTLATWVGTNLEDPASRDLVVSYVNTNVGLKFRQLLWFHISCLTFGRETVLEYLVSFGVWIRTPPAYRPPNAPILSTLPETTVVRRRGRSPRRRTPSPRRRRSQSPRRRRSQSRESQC

For one assay, the target named is T1, association of L HBsAg with HBcAg (Hepatitis B virus genotype D subtype adw, UniProt P03147).
T1 construct: Purification of Particles Comprising Full-Length or Truncated HBcAg; made in house; host or cells: HBcAg: E. coli RB 791; L HBsAg: in vitro translation in rabbit reticulocyte lysate with canine pancreatic microsomal membranes
T1 sequence (P03147 whole entry, the tested form may be a part): as the sequence (P03147 whole entry) above
Put plainly: biochemical. Type of assay: binding.
Conditions: not given
The procedure: Inhibitors of the Association of HBsAg with HBcAg. The assay system developed for inhibitors of the interaction between HBsAg and HBcAg involved incubating purified membrane-inserted ^35S-labeled L polypeptide in HBcAg-coated wells and quantitating bound protein by scintillation counting. […] The principal target for polyclonal antibodies to the native, particulate S HBsAg resides between as 110 and aa 150 (31-33). […] However, large molecules, such as immunoglobulins, can cause stearic hindrance over a considerable distance in any compound to which they bind.
Inhibition of Membrane-Inserted L-Protein Binding to HBcAg by Antibodies and Peptides. Canine pancreatic microsomal membranes containing labeled protein were purified by layering the translation mixture (60 μl) on a 4-ml step gradient of 1-ml intervals of 77% (wt/vol), 30%, 20%, and 10% sucrose containing 20 mM Hepes (adjusted to pH 7.5 with NaOH)/2 mM dithiothreitol for fractionation by centrifugation (50,000 rpm, 2 hr at 4° C.; Sorvall model TsT 60.4 rotor). […] Sucrose gradient-purified L protein (4 μl) was diluted with NET-gel buffer (100 μl) containing various dilutions of either antibody or peptide for inhibition assays. Mixtures were incubated in HBcAg-coated wells (as in the paragraph Isolation of Phage that Bind to HBcAg) for 2 ½ hr at 4° C. and washed five times with NET-gel buffer with 10-min intervals. Wells were placed in scintillation vials containing Ecoscint A (5 ml; National Diagnostics) for quantitation of radioactivity.
As to “ALLTRILG (HBV Core Antigen Binding Peptide) [peptide including aa 21-27 of the S region, reference compound]”, the “inhibition of the reaction between L HBsAg and HBcAg (in words)” value is recorded as “no inhibitory properties”.

With GRMKG (not fully specified), the “inhibition of the reaction between L HBsAg and HBcAg (in words)” value is given as “no inhibitory properties”.

Still in this assay, the particulars now being: IC50: concentration of peptide required to inhibit the binding of L HBsAg to HBcAg at a half maximal level, free peptide; HBcAg-coated wells.
The molecule `CSCC[C@H](NC(=O)[C@H](CCCNC(=N)N)NC(=O)CNC(=O)[C@H](CC(C)C)NC(=O)[C@H](CC(C)C)NC(=O)[C@H](CO)NC(=O)CNC(=O)[C@H](CC(=O)O)NC(=O)[C@H](C)N)C(=O)N[C@@H](CCCCN)C(=O)NCC(=O)N[C@@H](C)C(=O)N[C@@H](C)C(=O)NCC(=O)O` returned an IC50 of 4.5 ± 0.8 µM.

Turning to `CSCC[C@H](NC(=O)[C@H](CCCNC(=N)N)NC(=O)CNC(=O)[C@H](CC(C)C)NC(=O)[C@H](CC(C)C)NC(=O)[C@H](CO)NC(=O)CNC(=O)[C@@H](N)CC(=O)O)C(=O)N[C@@H](CCCCN)C(=O)NCC(=O)N[C@@H](C)C(=O)N[C@@H](C)C(=O)O`, the IC50 is 3 ± 0.4 µM.

Consider `CSCC[C@H](NC(=O)[C@H](CCCNC(=N)N)NC(=O)CNC(=O)[C@H](CC(C)C)NC(=O)[C@H](CC(C)C)NC(=O)[C@H](CO)NC(=O)CN)C(=O)N[C@@H](CCCCN)C(=O)NCC(=O)N[C@@H](C)C(=O)O`, for which the IC50 came out at 0.79 ± 0.23 µM. This IC50 is about 3.8-fold lower than that of the molecule before.

The molecule `CSCC[C@H](NC(=O)[C@H](CCCNC(=N)N)NC(=O)CNC(=O)[C@H](CC(C)C)NC(=O)[C@H](CC(C)C)NC(=O)[C@H](CO)NC(=O)[C@H](CCCNC(=N)N)NC(=O)[C@H](Cc1cnc[nH]1)NC(=O)[C@@H](N)CCSC)C(=O)N[C@@H](CCCCN)C(=O)NCC(=O)N[C@@H](C)C(=O)O` yielded an IC50 of 0.8 ± 0.1 µM.

In turn, `CSCC[C@H](NC(=O)[C@H](CCCNC(=N)N)NC(=O)CNC(=O)[C@H](CC(C)C)NC(=O)[C@H](CC(C)C)NC(=O)[C@H](CO)NC(=O)[C@H](CCCNC(=N)N)NC(=O)[C@H](Cc1c[nH]cn1)NC(=O)[C@@H](N)CCSC)C(=O)N[C@@H](CCCCN)C(=O)NCC(=O)N[C@@H](C)C(=O)NCC(=O)NCCC(=O)NCC(=O)N[C@@H](CS)C(=O)O` came in with a concentration for half-maximal inhibition (IC50) of 3.8 ± 0.69 µM.

Molecule `CSCC[C@H](NC(=O)[C@H](CCCNC(=N)N)NC(=O)CNC(=O)[C@H](CC(C)C)NC(=O)[C@H](CC(C)C)NC(=O)[C@H](CO)NC(=O)[C@@H](N)CCCNC(=N)N)C(=O)N[C@@H](CCCCN)C(=O)NCC(=O)N[C@@H](C)C(=O)O` registered an IC50 of 0.29 ± 0.02 µM.

The molecule `CSCC[C@H](NC(=O)[C@H](CCCNC(=N)N)NC(=O)CNC(=O)[C@H](CC(C)C)NC(=O)[C@H](CC(C)C)NC(=O)[C@H](CO)NC(=O)[C@@H](N)CCCNC(=N)N)C(=O)N[C@@H](CCCCN)C(=O)NCC(=O)N[C@@H](C)C(=O)NCCC(=O)N[C@@H](CS)C(=O)O` gave an IC50 of 0.29 ± 0.03 µM.

`CSCC[C@H](NC(=O)[C@H](CCCNC(=N)N)NC(=O)CNC(=O)[C@H](CC(C)C)NC(=O)[C@H](CC(C)C)NC(=O)[C@@H](N)CO)C(=O)N[C@@H](CCCCN)C(=O)NCC(=O)NCCC(=O)N[C@@H](CS)C(=O)O` (H-SLLGRMKG[βAla]C-OH) yielded an IC50 of 1.8 ± 0.4 µM. This IC50 lies about 6.2-fold higher than the previous one.

For the molecule ALLGRMKG, the IC50 is 10 µM and 11 µM.

Ac-SLLGRMKG returned an IC50 of 26.2 ± 5 µM.

HRSLLGRMKGA had an IC50 of 0.5 ± 0.04 µM. Against the preceding molecule, the IC50 is about 52-fold lower.

LDPAFR [LDPAFR, reference compound] displayed an IC50 of roughly 360 µM.

In turn, LGRMKG [LGRMKG] showed an IC50 of 980 ± 157 µM.

LLGRMKG [LLGRMKG] came in with an IC50 of 46.2 ± 7.4 µM.

With SLLGRMK [SLLGRMK], the concentration for half-maximal inhibition (IC50) was found to be 40.7 ± 4.8 µM.

SLLGRMKG yielded an IC50 of 6.4 ± 0.7 µM.

Regarding SLLGRMKGA, the IC50 was 2.4 ± 0.2 µM.

The assay is the same for the next values; noted with them: free peptide; HBcAg-coated wells.
On to ALLPRMKG, for which the “IC50: concentration of peptide required to inhibit the binding of L HBsAg to HBcAg at a half maximal level” value is on record as “no”.

Consider GRMKG (not fully specified), for which the “IC50: concentration of peptide required to inhibit the binding of L HBsAg to HBcAg at a half maximal level” value is recorded as “no^2”.

As to LLGRM (not fully specified), the “IC50: concentration of peptide required to inhibit the binding of L HBsAg to HBcAg at a half maximal level” value was “no”.

The same assay, now with this note: inhibition of L HBsAg binding to HBcAg.
Consider `CSCC[C@H](NC(=O)[C@H](CCCNC(=N)N)NC(=O)CNC(=O)[C@H](CC(C)C)NC(=O)[C@H](CC(C)C)NC(=O)[C@H](CO)NC(=O)[C@@H](N)CCCNC(=N)N)C(=O)N[C@@H](CCCCN)C(=O)NCC(=O)N[C@@H](C)C(=O)O`, for which the “fold improvement over the original ALLGRMKG peptide” value is greater than 40 fold.

The target of another assay is T2, HBcAg (Hepatitis B virus genotype D subtype adw, UniProt P03147).
T2 construct: Purification of Particles Comprising Full-Length or Truncated HBcAg; made in house; host or cells: E. coli RB 791
T2 sequence (P03147 whole entry, the tested form may be a part): as the sequence (P03147 whole entry) above
Kind of assay: Peptide inhibition of fusion phage binding to HBcAg-coated wells.
Conditions: not given
The method, then:
Phage-Binding Assay in Solution. […] Aliquots (100 μl) of each mixture were transferred to polystyrene wells (no. 2585, Costar) that had been coated with HBcAg (20 μg/ml in PBS; 125 μl per well). After 1 hr at 6° C. the wells were washed 10 times with TBS/BSA at 0.2 mg/ml. Bound phage were recovered and titered as described in the previous section. All assays were done in triplicate. The HBcAg concentration range was 1.58-50 μM for experiments with phage B2 and B3 and was 0.63-20 μM for experiments with phage B4. For peptide inhibition experiments, fusion phage (10^9 pfu/ml; 200 μl) were incubated with various concentrations of peptide (1 mM-10 nM) in HBcAg-coated wells for 90 min at 6° C.
As to “ALLTRILG (HBV Core Antigen Binding Peptide) [peptide including aa 21-27 of the S region, reference compound]”, the “inhibition of binding of fusion phage to HBcAg” value is reported as “inability to inhibit”.

As to GRMKG (not fully specified), the “inhibition of binding of fusion phage to HBcAg” value is given as “inability to inhibit”.

The next assay addresses hepatitis B virus core antigen (HBcAg) (hepatitis B virus). Kind of assay: peptide inhibition of 35S-labeled L HBsAg binding to HBcAg-coated wells.
Conditions: not given
peptide ALLGRMKG gave a 50% inhibitory concentration (IC50) of 11 µM.

peptide AcSLLGRMKG: the 50% inhibitory concentration (IC50) was 26.2 µM. This IC50 is about 2.4-fold higher than that of the molecule before.

In the case of peptide CLLGRMKC, the half-inhibitory concentration (IC50) was found to be 652 µM.

peptide LGRMKG came in with an IC50 of 980 µM.

Consider peptide LLGRMKG, for which the concentration for half-maximal inhibition (IC50) is 46.2 µM.

Molecule peptide SLLGRMK displayed an IC50 of 40.7 µM.

On to peptide SLLGRMKG, for which the half-inhibitory concentration (IC50) amounted to 6.4 µM.

Take peptide SLLGRMKG(β-A)C: the IC50 is 1.8 µM.

The next assay has the same target. The description is as above.
Conditions: not given
The source holds these as a separate data set.
As to peptide ALLGRMKG, the concentration for half-maximal inhibition (IC50) is 10 µM.

For the molecule peptide LDPAFR, the IC50 was determined as 360 µM.

A further assay has the same target. Put plainly: phage-binding assay in solution: phage incubated with HBcAg, free phage caught on HBcAg-coated wells and titered.
Conditions: not given
Consider B1, for which the KD^Rel (relative dissociation constant) was found to be 0.00196 µM.

Molecule B2 gave a KD^Rel (relative dissociation constant) of 0.181 µM.

In the case of B3, the KD^Rel (relative dissociation constant) is 0.767 µM.

As for B4, the KD^Rel (relative dissociation constant) came to 0.00094 µM.

B5 yielded a KD^Rel (relative dissociation constant) of 0.00088 µM.

For B6, the KD^Rel (relative dissociation constant) was determined as 0.00084 µM.

In turn, B7 had a KD^Rel (relative dissociation constant) of 0.02 µM.

On to B8, for which the KD^Rel (relative dissociation constant) amounted to 0.00109 µM.

For the molecule B9, the KD^Rel (relative dissociation constant) is 0.0014 µM.

For the molecule B10, the KD^Rel (relative dissociation constant) turned out to be 0.322 µM.

B11 had a KD^Rel (relative dissociation constant) of 0.00084 µM.

What is called IC50 is the point on the concentration scale where inhibition reaches its midpoint. Higher therefore signals weaker potency.
